Test results as given in article PMC4569848 (Nature Communications, 2015).

Target: T1, GST-clathrin 1–494 (human, UniProt Q00610 1-494)
T1 construct: clathrin, human, residues 1-494, in pGEX-6P1; source: E. coli BL21, purified (glutathione-Sepharose 4B, eluted with GSH); not shown: GST, N-terminal, kept
T1 sequence (looked up): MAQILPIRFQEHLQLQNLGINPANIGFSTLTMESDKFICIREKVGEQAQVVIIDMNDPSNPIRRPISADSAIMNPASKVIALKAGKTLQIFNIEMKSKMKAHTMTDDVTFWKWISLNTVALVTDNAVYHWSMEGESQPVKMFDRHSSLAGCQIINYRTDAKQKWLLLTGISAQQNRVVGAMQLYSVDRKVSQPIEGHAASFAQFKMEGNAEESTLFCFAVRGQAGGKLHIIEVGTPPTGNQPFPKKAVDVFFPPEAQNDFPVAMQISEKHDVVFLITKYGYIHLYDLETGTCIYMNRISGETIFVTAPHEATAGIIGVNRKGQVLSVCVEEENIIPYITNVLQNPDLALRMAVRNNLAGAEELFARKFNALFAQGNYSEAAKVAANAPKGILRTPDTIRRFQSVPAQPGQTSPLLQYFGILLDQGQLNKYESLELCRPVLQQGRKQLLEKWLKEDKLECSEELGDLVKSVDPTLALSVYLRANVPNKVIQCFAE
Assay: pull-down; β-arrestin-1-F2Y mutants (300 nM) incubated with equal concentrations of GST-clathrin and V2R-phospho-peptide (V2Rpp), or without peptide; pulled down with GST beads; bound β-arrestin-1 detected by western blot with a β-arrestin-1 antibody
Conditions: both partners purified

Binder | binding result
β-arrestin-1-D383-F2Y (natural protein, bovine, UniProt P17870 1-418, looked up, 3,5-difluorotyrosine (F2Y) at 383, β-arrestin-1, bovine, full-length cDNA in pET22b, amber codon at D383 read as F2Y; source: E. coli BL21 (DE3) with pEVOL-F2YRS and F2Y in the medium, purified (Ni-NTA, gel filtration)) MGDKGTRVFKKASPNGKLTVYLGKRDFVDHIDLVEPVDGVVLVDPEYLKERRVYVTLTCAFRYGREDLDVLGLTFRKDLFVANVQSFPPAPEDKKPLTRLQERLIKKLGEHAYPFTFEIPPNLPCSVTLQPGPEDTGKACGVDYEVKAFCAENLEEKIHKRNSVRLVIRKVQYAPERPGPQPTAETTRQFLMSDKPLHLEASLDKEIYYHGEPISVNVHVTNNTNKTVKKIKISVRQYADICLFNTAQYKCPVAMEEADDTVAPSSTFCKVYTLTPFLANNREKRGLALDGKLKHEDTNLASSTLLREGANREILGIIVSYKVKVKLVVSRGGLLGDLASSDVAVELPFTLMHPKPKEEPPHREVPEHETPVDTNLIELDTNYDDIVFEDFARQRLKGMKDDKEEEEDGTGSPRLNDR | binds
β-arrestin-1-F75-F2Y (natural protein, bovine, UniProt P17870 1-418, looked up, 3,5-difluorotyrosine (F2Y) at 75, β-arrestin-1, bovine, full-length cDNA in pET22b, amber codon at F75 read as F2Y; source: E. coli BL21 (DE3) with pEVOL-F2YRS and F2Y in the medium, purified (Ni-NTA, gel filtration)) MGDKGTRVFKKASPNGKLTVYLGKRDFVDHIDLVEPVDGVVLVDPEYLKERRVYVTLTCAFRYGREDLDVLGLTYRKDLFVANVQSFPPAPEDKKPLTRLQERLIKKLGEHAYPFTFEIPPNLPCSVTLQPGPEDTGKACGVDYEVKAFCAENLEEKIHKRNSVRLVIRKVQYAPERPGPQPTAETTRQFLMSDKPLHLEASLDKEIYYHGEPISVNVHVTNNTNKTVKKIKISVRQYADICLFNTAQYKCPVAMEEADDTVAPSSTFCKVYTLTPFLANNREKRGLALDGKLKHEDTNLASSTLLREGANREILGIIVSYKVKVKLVVSRGGLLGDLASSDVAVELPFTLMHPKPKEEPPHREVPEHETPVDTNLIELDTNDDDIVFEDFARQRLKGMKDDKEEEEDGTGSPRLNDR | binds
β-arrestin-1-F277-F2Y (natural protein, bovine, UniProt P17870 1-418, looked up, 3,5-difluorotyrosine (F2Y) at 277, β-arrestin-1, bovine, full-length cDNA in pET22b, amber codon at F277 read as F2Y; also called F2Y-F277; source: E. coli BL21 (DE3) with pEVOL-F2YRS and F2Y in the medium, purified (Ni-NTA, gel filtration)) MGDKGTRVFKKASPNGKLTVYLGKRDFVDHIDLVEPVDGVVLVDPEYLKERRVYVTLTCAFRYGREDLDVLGLTFRKDLFVANVQSFPPAPEDKKPLTRLQERLIKKLGEHAYPFTFEIPPNLPCSVTLQPGPEDTGKACGVDYEVKAFCAENLEEKIHKRNSVRLVIRKVQYAPERPGPQPTAETTRQFLMSDKPLHLEASLDKEIYYHGEPISVNVHVTNNTNKTVKKIKISVRQYADICLFNTAQYKCPVAMEEADDTVAPSSTFCKVYTLTPYLANNREKRGLALDGKLKHEDTNLASSTLLREGANREILGIIVSYKVKVKLVVSRGGLLGDLASSDVAVELPFTLMHPKPKEEPPHREVPEHETPVDTNLIELDTNDDDIVFEDFARQRLKGMKDDKEEEEDGTGSPRLNDR | binds
β-arrestin-1-F388-F2Y (natural protein, bovine, UniProt P17870 1-418, looked up, 3,5-difluorotyrosine (F2Y) at 388, β-arrestin-1, bovine, full-length cDNA in pET22b, amber codon at F388 read as F2Y; source: E. coli BL21 (DE3) with pEVOL-F2YRS and F2Y in the medium, purified (Ni-NTA, gel filtration)) MGDKGTRVFKKASPNGKLTVYLGKRDFVDHIDLVEPVDGVVLVDPEYLKERRVYVTLTCAFRYGREDLDVLGLTFRKDLFVANVQSFPPAPEDKKPLTRLQERLIKKLGEHAYPFTFEIPPNLPCSVTLQPGPEDTGKACGVDYEVKAFCAENLEEKIHKRNSVRLVIRKVQYAPERPGPQPTAETTRQFLMSDKPLHLEASLDKEIYYHGEPISVNVHVTNNTNKTVKKIKISVRQYADICLFNTAQYKCPVAMEEADDTVAPSSTFCKVYTLTPFLANNREKRGLALDGKLKHEDTNLASSTLLREGANREILGIIVSYKVKVKLVVSRGGLLGDLASSDVAVELPFTLMHPKPKEEPPHREVPEHETPVDTNLIELDTNDDDIVYEDFARQRLKGMKDDKEEEEDGTGSPRLNDR | binds
β-arrestin-1-K11-F2Y (natural protein, bovine, UniProt P17870 1-418, looked up, 3,5-difluorotyrosine (F2Y) at 11, β-arrestin-1, bovine, full-length cDNA in pET22b, amber codon at K11 read as F2Y; source: E. coli BL21 (DE3) with pEVOL-F2YRS and F2Y in the medium, purified (Ni-NTA, gel filtration)) MGDKGTRVFKYASPNGKLTVYLGKRDFVDHIDLVEPVDGVVLVDPEYLKERRVYVTLTCAFRYGREDLDVLGLTFRKDLFVANVQSFPPAPEDKKPLTRLQERLIKKLGEHAYPFTFEIPPNLPCSVTLQPGPEDTGKACGVDYEVKAFCAENLEEKIHKRNSVRLVIRKVQYAPERPGPQPTAETTRQFLMSDKPLHLEASLDKEIYYHGEPISVNVHVTNNTNKTVKKIKISVRQYADICLFNTAQYKCPVAMEEADDTVAPSSTFCKVYTLTPFLANNREKRGLALDGKLKHEDTNLASSTLLREGANREILGIIVSYKVKVKLVVSRGGLLGDLASSDVAVELPFTLMHPKPKEEPPHREVPEHETPVDTNLIELDTNDDDIVFEDFARQRLKGMKDDKEEEEDGTGSPRLNDR | binds
β-arrestin-1-K107-F2Y (natural protein, bovine, UniProt P17870 1-418, looked up, 3,5-difluorotyrosine (F2Y) at 107, β-arrestin-1, bovine, full-length cDNA in pET22b, amber codon at K107 read as F2Y; source: E. coli BL21 (DE3) with pEVOL-F2YRS and F2Y in the medium, purified (Ni-NTA, gel filtration)) MGDKGTRVFKKASPNGKLTVYLGKRDFVDHIDLVEPVDGVVLVDPEYLKERRVYVTLTCAFRYGREDLDVLGLTFRKDLFVANVQSFPPAPEDKKPLTRLQERLIKYLGEHAYPFTFEIPPNLPCSVTLQPGPEDTGKACGVDYEVKAFCAENLEEKIHKRNSVRLVIRKVQYAPERPGPQPTAETTRQFLMSDKPLHLEASLDKEIYYHGEPISVNVHVTNNTNKTVKKIKISVRQYADICLFNTAQYKCPVAMEEADDTVAPSSTFCKVYTLTPFLANNREKRGLALDGKLKHEDTNLASSTLLREGANREILGIIVSYKVKVKLVVSRGGLLGDLASSDVAVELPFTLMHPKPKEEPPHREVPEHETPVDTNLIELDTNDDDIVFEDFARQRLKGMKDDKEEEEDGTGSPRLNDR | binds
